Data from patent US8287851B2, “Use of interleukin 17E for the treatment of cancer” (Lorus Therapeutics Inc., priority 2005, dated 2012).

Columns and labels:
[1] = tested on: IL-5; test: Serum IL-5 in tumour-engrafted mice (ELISA); format: in vivo, CD1-nude mice
Description: The expression of IL-5 in serum was examined in tumour-engrafted mice treated with IL-17E. CD1-nude mice were engrafted with either C8161 human melanoma cells or MiaPaCa2 pancreatic cancer cells and treated with either PBS or murine IL-17E as described previously. Serum samples were collected individually from each mouse at the endpoint of the experiment, and IL-5 levels were determined by ELISA assay (BD OptEIA; BD Biosciences), according to the manufacturer's instructions. Immunoassay plates were coated with anti-mouse IL-5 monoclonal antibody as a capture antibody and incubated with serial dilutions of mouse sera. Plates were washed three times with wash buffer and blocked for 1 hr at room temp. Plates were incubated with biotinylated anti-mouse IL-5 monoclonal antibody and avidin-horseradish peroxidase conjugate for 1 hour, followed by seven washes. Substrate solution was added for 30 minutes, followed by stop solution, prior to measurement of absorbance (450/570 nm). Statistical analysis was performed to compare IL-5 levels. P values <0.05 were considered to be significant.

[2] = tested on: protein tyrosine kinase Lyn; test: Lyn phosphorylation in B cell lymphoma cell line WEHI-231 (Western blot); format: cell-based; conditions: 0.21 μg per 1.5×10^6 WEHI-231 cells, 0, 2, 5 minutes
Description: The effect of IL-17E on activation of signaling pathways in B cells was examined using the B cell lymphoma cell line WEHI-231 (Lanier L. L., et al. (1981) J. Immunol. 126:626-31). Specifically, the activation status of the protein tyrosine kinase Lyn and the B cell linker protein BLNK (Tsubata, T., et al., (2001) Int Rev Immunol 20:675-8) were examined. An increased level of the phosphorylated forms of these proteins is indicative of activation.
A total of 1.5×10^6 cells per sample were stimulated in vitro with 0.21 μg of either human IL-17E or murine IL17E at 37° C. Cells were lysed at time points t=0, 2, and 5 minutes in lysis buffer for 30 minutes on ice, followed by centrifugation for 10 minutes. Samples containing approximately 25 μg of protein were separated by SDS-PAGE, followed by transfer to membranes for Western blotting.
For detection of Lyn, Western blots were incubated with rabbit anti-Lyn antibodies, followed by horseradish peroxidase (HRP)-conjugated anti-rabbit antibodies. All blots were exposed to autoradiography film and developed to detect proteins of interest by chemiluminescence.
To assess equivalence in protein loading among lanes in both experiments, blots were stripped of antibodies and incubated with mouse anti-GAPDH antibodies and HRP-conjugated anti-mouse antibodies, followed by chemiluminescence-based detection.

[3] = target: T1, IL17BR interaction with protein tyrosine kinase Lyn (Mus musculus, UniProt Q9JIP3); test: Coimmunoprecipitation of Lyn and IL17BR in WEHI-231 cells; format: cell-based; conditions: 0.1 μg per 5×10^6 WEHI-231 cells, 5 minutes at 37° C.
T1 construct: using the B cell lymphoma cell line WEHI-231; endogenous in cells; host or cells: WEHI-231 B cell lymphoma cells
T1 sequence (Q9JIP3 18-499): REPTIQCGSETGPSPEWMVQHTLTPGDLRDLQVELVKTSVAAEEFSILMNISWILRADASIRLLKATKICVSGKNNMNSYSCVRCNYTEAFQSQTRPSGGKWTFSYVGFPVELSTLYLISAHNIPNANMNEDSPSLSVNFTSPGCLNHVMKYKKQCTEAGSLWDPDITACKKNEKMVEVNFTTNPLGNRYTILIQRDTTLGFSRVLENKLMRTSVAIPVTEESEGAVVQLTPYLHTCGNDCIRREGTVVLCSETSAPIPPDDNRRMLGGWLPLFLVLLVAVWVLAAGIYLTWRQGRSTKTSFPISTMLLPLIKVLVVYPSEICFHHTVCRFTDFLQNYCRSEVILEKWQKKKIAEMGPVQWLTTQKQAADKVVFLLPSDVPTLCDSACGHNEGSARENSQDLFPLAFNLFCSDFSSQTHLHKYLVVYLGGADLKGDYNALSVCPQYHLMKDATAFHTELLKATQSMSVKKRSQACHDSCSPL
Description: The effect of interleukin 17E on the induction of interaction of its receptor IL17BR with the protein tyrosine kinase Lyn was examined using the B cell lymphoma cell line WEHI-231.
A total of 5×10^6 cells per sample were incubated with 0.1 μg of human IL17E (hIL-17E) for 5 minutes at 37° C. Cells were lysed in lysis buffer for 30 minutes on ice, followed by centrifugation for 10 minutes. The tyrosine kinase Lyn was immunoprecipitated from 350 μg of protein lysate using rabbit anti-Lyn antibodies coupled to Protein A Sepharose beads. Immunoprecipitated samples containing approximately 25 μg of protein were separated by SDS-PAGE, followed by transfer to membranes for Western blotting.
For detection of phosphorylated Lyn, blots were incubated with anti-phosphotyrosine antibodies, followed by horseradish peroxidase (HRP)-conjugated anti-mouse antibodies.
For detection of IL17BR, blots were incubated with biotin-conjugated-rat anti-IL17BR antibodies, followed by HRP-conjugated streptavidin.
To assess equivalent loading of Lyn, blots were incubated with rabbit anti-Lyn antibodies, followed by HRP-conjugated-anti-rabbit antibodies.
All blots were exposed to autoradiography film and developed to detect chemiluminescence.

B1: murine IL-17E: Murine IL-17E from R&D Systems; predominant form starting at Val 17 of GenBank NP 542767 (protein)
chain: VSLRIQEGCSHLPSCCPSKEQEPPEEWLKWSSASVSPPEPLSHTHHAESCRASKDGPLNSRAISPWSYELDRDLNRVPQDLYHARCLCPHCVSLQTGSHMDPLGNSVPLYHNQTVFYRRPCHGEEGTHRRYCLERRLYRVSLACVCVRPRVMA
serum levels of IL-5 as compared to PBS ([1]; mice engrafted with human melanoma C8161 cells): significantly higher | serum levels of IL-5 as compared to PBS ([1]; mice engrafted with human pancreatic cancer MiaPaCa2 cells): significantly higher | levels of phosphorylated Lyn protein [2]: increased

B2: human IL-17E: Recombinant human IL-17E from PeproTech; two 145 amino acid chains, predominant form starting at Tyr 33 of GenBank AAG40848 (protein, listed as Homo sapiens)
chain: YSHWPSCCPSKGQDTSEELLRWSTVPVPPLEPARPNRHPESCRASEDGPLNSRAISPWRYELDRDLNRLPQDLYHARCLCPHCVSLQTGSHMDPRGNSELLYHNQTVFYRRPCHGEKGTHKGYCLERRLYRVSLACVCVRPRVMG
coimmunoprecipitation of Lyn and IL17BR [3]: coimmunoprecipitated | levels of phosphorylated Lyn protein [2]: increased
